Assay results reported in PMC10784544, “Ferric reduction by a CYBDOM protein counteracts increased iron availability in root meristems induced by phosphorus deficiency” (Nature Communications, 2024).

Substrate: O=C1O[C@H]([C@@H](O)CO)C(O)=C1O
Experiment: two-electrode voltage clamp in Xenopus oocytes, trans-plasma membrane current
Assay type: cell-based, Arabidopsis thaliana
Conditions: cytosolic electron donor, raised by injection; ferricyanide as extracellular electron acceptor

B1: HYP1 (… TO LOW P1) (Arabidopsis thaliana) (protein)
chain: QSLCNTHRFTNNLAFADCSDLSALGSFLHWTYNEQNGTVSIAYRHPGTSASSWVAWGLNPSSTQMVGTQALVAFTNTTTNQFQAYTSSVSSYGTRLERSSLSFGVSGLSATLVSGEVTIFATLELSPNLITANQLWQVGPVVNGVPASHQTSGDNMRSSGRIDFRTGQASAGGGGSGDRLRKRNTHGVLNAVSWGVLMPMGAMMARYMKVFADPTWFYLHIAFQVSGYVIGVAGWATGIKLGNDSPGTSYSTHRNLGIALFTFATLQVFALLVRPKPDHKYRTYWNVYHHTVGYTTIILSIVNIFKGFDILDPEDKWRWAYIGILIFLGACVLILEPLTWFIVLRRKSRGGNTVAAPTSSKYSNGVNGTTTTGPHHQDA
notes: cDNA in pGEMHE, cRNA-injected Xenopus laevis oocytes
Q: B1 was tested. Which Km did it give?
A: 4 mM
